Reference: patent US20200087416A1
Values belong to the binder of their own block, whether it stands above or below them.

Key:
[1] = biological target: human PCSK9 (PCSK9 antigen, SEQ ID NO. 53) (human); test: MSD-SET, Fab with biotin-PCSK9 in solution, IgG on plate, pH 6.0
[2] = biological target: human PCSK9 (PCSK9 antigen, SEQ ID NO. 53) (human); test: MSD-SET, Fab with biotin-PCSK9 in solution, IgG on plate, pH 7.4
[3] = biological target: cynomolgus PCSK-9 (cynomolgus); test: as above
[4] = biological target: murine PCSK-9 (murine) (UniProt Q80W65); test: as above
[5] = biological target: cynomolgus PCSK-9 (cynomolgus); test: BLI (ForteBio), IgG on AHQ sensor, 100 nM antigen

Kd [1]: 0.038 nM
Kd [2]: 0.021 nM
Kd [3]: 0.026 nM
Kd [4]: 0.065 nM
B1: Bococizumab Fab (Fab, INN chains, looked up, V domains shown)
VH: QVQLVQSGAEVKKPGASVKVSCKASGYTFTSYYMHWVRQAPGQGLEWMGEISPFGGRTNYNEKFKSRVTMTRDTSTSTVYMELSSLRSEDTAVYYCARERPLYASDLWGQGTTVTVSS
VL: DIQMTQSPSSLSASVGDRVTITCRASQGISSALAWYQQKPGKAPKLLIYSASYRYTGVPSRFSGSGSGTDFTFTISSLQPEDIATYYCQQRYSLWRTFGQGTKLEIK
modifications: Fab

Kd [5]: 2.34 nM
B2: Lodelcizumab (antibody, INN chains, looked up, V domains shown)
VH: QVQLVQSGAEVKKPGASVKVSCKASGYTFSTMYMSWVRQAPGQGLEWMGRIDPANEHTNYAQKFQGRVTMTRDTSISTAYMELSRLTSDDTAVYYCARSYYYYNMDYWGQGTLVTVSS
VL: QIVLTQSPATLSVSPGERATLSCRASQSVSYMHWYQQKPGQAPRLLIYGVFRRATGIPDRFSGSGSGTDFTLTIGRLEPEDFAVYYCLQWSSDPPTFGQGTKLEIK

Kd [3]: 0.1 nM
B3: Lodelcizumab Fab (Fab, INN chains, looked up, V domains shown)
VH: B2 VH
VL: B2 VL
modifications: Fab
